From patent publication US10323085B2, “Methods of treating fibromyalgia” (Teva Pharmaceuticals International GmbH, priority 2008, dated 2019)

B1: G2: anti-rat CGRP mouse monoclonal antibody (Wong H C et al. Hybridoma 1993); variable regions SEQ ID Nos. 19 and 20; murine tool (antibody, V domains shown)
VH: EVQLQQSGPELVKPGASVKMSCKASGYTFTSSVMHWVKQKPGQGLEWIGYINPYNDGTKYNEKFKGKATLTSDKSSSTAYMELSSLTSEDSAVYYCAKGGNDGYWGQGTTLTVSS
VL: EIVLTQSPTTMAASPGEKITITCSASSSISSIYLHWYQQKPGFSPKVLIYRASNLASGVPARFSGSGSGTSYSLTIGTMEAEDVATYYCQQGSTIPFTFGSGTKLEIK
modifications: Synthetic polypeptide, Antibody G2 heavy chain variable region; Synthetic polypeptide, Antibody G2 light chain variable region
notes: anti-rat CGRP mouse monoclonal antibody (Wong H C et al. Hybridoma 1993); murine tool

Key:
[1] = system: CGRP1-receptor in SK-N-MC cells; assay: Binding assay: blocking human α-CGRP from binding to the CGRP1-receptor in SK-N-MC cells; details: FIG. 4
adrenomedullin = target: T1, adrenomedullin (Homo sapiens, UniProt P35318); assay: Solution competition by Biacore (specificity); format: binding; details: pre-incubated with an excess of adrenomedullin
T1 sequence (P35318 95-146 limits assumed): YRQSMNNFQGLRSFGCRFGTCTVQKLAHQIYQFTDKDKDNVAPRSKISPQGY
Description: (§1) We determined the specificity of antibody G1 to human or rat CGRP by using the Biacore chip to “probe” the free concentration of a premixed complex of mAb+peptide.

amylin = target: T2, amylin (Homo sapiens, UniProt P10997); assay: Solution competition by Biacore (specificity); format: binding; details: pre-incubated with an excess of amylin
T2 sequence (P10997 34-70 limits assumed): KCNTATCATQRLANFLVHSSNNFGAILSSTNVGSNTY
Description: as §1

calcitonin = target: T3, calcitonin (Homo sapiens, UniProt P01258); assay: Solution competition by Biacore (specificity); format: binding; details: pre-incubated with an excess of calcitonin
T3 sequence (P01258 85-116 limits assumed): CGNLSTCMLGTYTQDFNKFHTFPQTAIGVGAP
Description: as §1

human CGRP = assay: Solution competition by Biacore (specificity); format: binding; details: pre-incubated with human CGRP
Description: as §1

rat CGRP = assay: Solution competition by Biacore (specificity); format: binding; details: pre-incubated with rat CGRP
Description: as §1

[2] = target: T4, 25-37 human α-CGRP fragment (Homo sapiens, UniProt P06881); assay: Alanine scan of C-terminal CGRP fragment (CGRP 25-37) by Biacore, epitope identification; format: binding; details: 25° C., Biacore 3000
T4 construct: (CGRP 25-37)
Protocol: Interaction analysis was conducted at 25° C. on a Biacore 3000™ system equipped with streptavidin-coated (SA) sensor chips (Biacore AB, Uppsala, Sweden) using a standard Biacore running buffer (HBS-P). […] Each amino acid between position 27-37 was then mutated individually to alanine and expressed the fold loss in affinity compared to the wild-type fragment. N-biotinylated fragments were captured on individual flow cells at low levels (typically 100 response units) to provide the reaction surfaces, while an unmodified flow cell served as a reference channel. Purified Fab fragments of antibody G1 were generated. Fab fragments were titrated over the chip using 1 μM as the top concentration of a two-fold dilution series. Association and dissociation phases were monitored at 100 μl/min for 1 minute and 5 minutes respectively. Surfaces were regenerated with a mixture of 35% ethanol+25 mM NaOH+0.5M NaCl.

rats = assay: Indicators of physical or psychological dependence, long term observation of dosed animals; details: rat, in vivo
CGRP = assay: Neurogenic skin flare rat model (saphenous nerve stimulation, laser Doppler blood flow); format: in vivo; details: for start of significant decrease in blood flow response post dose: intravenous; for development of neurogenic flare in vivo: rat
Protocol: Using a neurogenic skin flare rat model the efficacy of G1 was tested for its ability to block CGRP effect in vivo. The saphenous nerve in the rat is electrically stimulated causing CGRP release from nerve endings and leading to vasodilation, the resulting changes in blood flow can be measured using laser Dopler methods.
Changes in blood flow parameters were expressed as the area under the curve (AUC, change in arbitrary Doppler flux units multiplied by time). CGRP receptor antagonist CGRP8-37 (400 nmol/kg, i.v.) was used as a positive control to validate the specificity of the model (data not shown). To determine the effect of G1 prior to dosing for each animal, the baseline blood flow response to stimulation was established with two saphenous nerve stimulations each 30 minutes apart. Rats were treated with G1 after the blood flow response of the second stimulation had returned to baseline levels (approximately 10 minutes post stimulation) and an additional four stimulations at 30 minute intervals were performed.

MRMT-1 injected rats [3] = assay: Bone cancer pain model (MRMT-1), mechanical hypersensitivity to von Frey stimuli; format: in vivo, rat; details: IV 10 mg/kg at day 9
Protocol: Tumour cells used are syngeneic MRMT-1 rat mammary gland carcinoma cells donated from the Novartis Institute (London). The cells are cultured in RPMI 1640 (Gibco) with 10% foetal bovine serum (FCS), 1% L-glutamine 2% penicillin/streptomycin (Gibco). Two brief washes are carried out with 0.1% w/v trypsin to release those cells which adhere to the flask, and then quenched with an equal volume of 10% FCS, followed by centrifugation of the solution for 3 minutes at 1200 rpm. The pellet is washed and resuspended in Hanks medium, and the concentration of cells calculated using a Haemocytometer, with trypan blue staining to determine the number of dead MRMT-1 cells. The final concentration of 3×10^3 cells was then obtained by diluting the solution according to the number of cells seen. The final solution was kept on ice until time of injection.
Male Sprague-Dawley rats weighing close to 170 g at time of surgery were used to generate the cancer model. Anaesthesia was induced in the rats using halothane or isoflurane (1.5-2%) 66% N2O and 33% O2, the leg was shaved over the appropriate area and disinfected with chlorhexidine (Animalcare Ltd, UK.). A small incision in order to expose the anterior-medial surface of the distal end of the tibia was made. A hole was bored in the periosteum using a 0.7 mm dental drill, through which a 2 cm polythene tubing was fed 1 cm into the intra-medullar cavity of the tibia. Using a Hamilton syringe the pre-prepared 10 μl of 3×10^3 MRMT-1 cells were injected through the tubing into the cavity. The tubing was then removed and the hole plugged using bone restorative material (IRM, Dentsply USA). The wound was then irrigated with 0.9% saline and closed with a metal clip. The sham animals were operated upon using the same procedure but injected with 10 μl of Hank's solution alone. The animals were placed in a thermoregulated recovery box until such time that they were able to be placed back in their housing cages.
Testing behaviour towards mechanical stimuli uses von Frey filaments (North Coast Medical Inc., USA) to the plantar surface of both the ipsilateral and contralateral hindpaw. The rats were placed in a Perspex cubicle with a mesh floor and allowed to acclimatise for 10 minutes. Each von Frey was applied 10 times to each hindpaw alternating between the ipsilateral and contralateral, for duration of 2-3 seconds each time. […] A nocifensive response (a lift) is defined as a brisk withdrawal of the hindpaw and the number of lifts for each paw at each von Frey are recorded (maximum of 10) and expressed as a percentage response. An assessment of the efficacy of rodent anti-CGRP antibody G2 in attenuating hypersensitivity to a wide variety of static mechanical, cooling and integrated stimuli was carried out as well as the background basal pain behaviours in this validated model of cancer induced bone pain. The responses measured are attenuated by standard analgesic treatments such as morphine and gabapentin. All measures were made by the same scientist in a blind fashion—blinded to the identity of the compound/control and to the treatment of the animal.
G2-was given IV at 10 mg/kg at day 9 and rats were tested at 2 hrs and then on days 10, 11, 12 and then 14-18 days post treatment (FIG. 1).

MRMT-1 injected rats [4] = assay: Rota rod test for motor impairment in the bone cancer pain model; format: in vivo, rat; details: MRMT-1 injected rats treated at day 9 post surgery
Description: A further end point tested in the bone cancer pain model was ambulation (by rotarod). The test is to obtain a measurement of locomotor impairment comparing antibody treated with control animals, each subjected to the same test under the same conditions. The rota rod test consists of 4 rotateable drums divided by flanges with a motor-driven drum accelerated (Ugo Basile, Comerio, VA, Italy). For a given trial, a rat is placed on the rotating rod and the rotation speed is accelerated from 4 to 16 rpm in 2 min. The time of maximal performance is typically set at 120 sec. Each animal generally receives three trials per day, at 1 hr intervals, for several consecutive days post-surgery. The latency to fall off the rod is represented as mean of the three trials.

Row | Molecule | inhibition of binding of α-CGRP to the CGRP1 receptor [1] | complex formation with peptide (adrenomedullin) | complex formation with peptide (amylin) | complex formation with peptide (calcitonin) | Biacore response after pre-incubation with peptide (human CGRP) | Biacore response after pre-incubation with peptide (rat CGRP) | affinity of N-biotinylated 25-37 human α-CGRP fragment compared with full-length N-biotinylated human α-CGRP [2] | CNS penetration (rats) | start of significant decrease in blood flow response post dose (CGRP; 1 mg/kg) [min] | start of significant decrease in blood flow response post dose (CGRP; 10 mg/kg) [min] | inhibits neurogenic flare in the skin starting from, post-treatment (CGRP; FIG. 9, intravenous administration) [min] | development of neurogenic flare in vivo (CGRP) | hypersensitivity to von Frey 15 g vs vehicle treated group (MRMT-1 injected rats [3]; 2 and 3 days after drug administration) | hypersensitivity to von Frey 15 g vs vehicle treated group (MRMT-1 injected rats [3]; 2 hours post-injection) | hypersensitivity to von Frey 15 g vs vehicle treated group (MRMT-1 injected rats [3]; 6 days after G2 administration) | Withdrawal frequencies to von Frey 8 g vs vehicle treated group (MRMT-1 injected rats [3]; day 14 (day 5 post-G2 injection)) | Withdrawal frequencies to von Frey 8 g vs vehicle treated group (MRMT-1 injected rats [3]; days 11 and 12 (days 2 and 3 after injection)) | Withdrawal frequencies to von Frey 8 g (MRMT-1 injected rats [3]; two hours after injection) | latency to fall from the rotarod during forced ambulation vs vehicle group (MRMT-1 injected rats [4])
1 | G1: humanized IgG2Δa monoclonal anti-CGRP antagonist antibody from expression vectors ATCC PTA-6867 and PTA-6866; variable regions SEQ ID Nos. 1 and 2 | inhibits the binding | did not form a complex | did not form a complex | did not form a complex | fully blocked | fully blocked | same affinity | Neither antibody G1 nor antibody G2 demonstrate CNS penetration | 120 | 90 | 90 | prevent the development of neurogenic flare | – | – | – | – | – | – | –
2 | B1 | – | – | – | – | – | – | – | Neither antibody G1 nor antibody G2 demonstrate CNS penetration | – | – | – | prevent the development of neurogenic flare | significance seen | reduction in hypersensitivity | reductions were lost | no discernible difference | significantly reduced | reduced | No differences were found
